Source: US20250121075A1, “ALPHA-FETOPROTEIN BIOCONJUGATES FOR DISEASE TREATMENT” (priority 2021, published 2025)
Substitutions are numbered along the chain they refer to. Where two headings read alike, the source gives them in different places.

Columns and labels:
[1] = system: SKOV3 cells; assay: Cytotoxicity of AFP-ABZ982 and AFP-ABZ1827 bioconjugates, 4 day incubation; type: cell-based, human; conditions: read-out: Average IC50 SKOV3 cells (n = 1), 4 days
Description: (§1) Bioconjugates containing ABZ981 with two different release functionalities (AFP-ABZ982 and AFP-ABZ1827) were subsequently prepared at DPRs of 2.5 to 6.3. Cells were incubated for 4 days in the presence of the compounds over an 8-point concentration range, with each concentration tested in triplicate. Two experiments performed using freshly thawed U937 cells gave similar results to U937 cells maintained in culture.

[2] = system: U937 cells; assay: as above; type: cell-based, human; conditions: 4 days
Description: as §1

[3] = system: COLO-205 cells; assay: CellTiter-Glo cell viability, 72 hours; type: cell-based, human
Description: Turning to Table 5, two bioconjugates of each of AFP-ABZ982 and AFP-ABZ1827 (4 in total) were prepared at DPRs of approximately 4 (“low DPR”) and 6 (“high DPR”) for efficacy testing in vivo in the COLO-205 human tumor xenograft model. Potency in the COLO-205 cell line prior to implantation was assessed. Briefly, 96 well plates were seeded with COLO-205 cells either at 5,000 or 2,500 cells per well in a total volume to 50 μL per well. Plates were incubated overnight then treated with the bioconjugate at 37° C. for 72 hours and then a CellTiter-Glo assay was performed to measure cell viability. Samples were run in triplicate.

[4] = 25 mg/kg single IV, COLO-205 tumor
Description: Bioconjugates containing DM4, DM1 or ABZ981 were resynthesized at a DPR of approximately 4 (Table 3) for comparative testing in a pharmacokinetic/biodistribution (PK/BD) study in mice subcutaneously implanted with COLO-205 tumor xenografts.
The volumes of administration were adjusted to deliver the same amount of bioconjugate (25 mg/kg) to each group of animals as a single IV injection into the tail vein. Blood samples were taken at 0.25 and 1 hours post-injection and blood and tissue samples were taken at 4, 8 and 24 hours to evaluate the pharmacokinetics and biodistribution of the bioconjugates (n=3 per timepoint). A commercially available ELISA kit was used to measure AFP levels and levels of free maytansine and its metabolites were measured by LC/MS.

[5] = system: COLO-205 colorectal cancer xenografts; assay: COLO-205 colon carcinoma xenograft efficacy, daily dosing for 2 weeks; type: in vivo, mice; conditions: dosed at MTD, FIG. 2
Description: In the colon carcinoma xenograft model, 7 week old athymic male mice were implanted with 1×10^7 COLO-205 cells subcutaneously in the right flank. Mice with tumors of approximately 100 mm^3 to 200 mm^3 were randomized to receive control (vehicle) or one of the 4 bioconjugates (10 animals/group). Animals were treated daily for 2 weeks with 2 days of rest after 5 doses; tumor volume was assessed twice weekly for 60 days following implantation. FIGS. 2 and 3 reveal the valuable properties of the present bioconjugates in the COLO 205 human xenograft model of colon cancer as shown by this study.

[6] = Maximum tolerated dose in healthy mice; type: in vivo; conditions: Q1D×5 for 2 weeks, clinical observations and AST/ALT
Description: The four ABZ981-containing bioconjugates above were resynthesized and formulated in a 10 mM HEPES buffer, 5% sucrose at pH 7.5 (Table 6). Prior to testing the efficacy in tumor-bearing mice, the maximum tolerated dose (MTD) was determined for each bioconjugate in healthy mice, employing the same dosing regimen used for the efficacy study (Q1D×5 for 2 weeks) at doses of 0, 5, 10, 20 and 40 mg/kg. MTD was based on clinical observations made daily during the dosing period and elevations of liver enzymes (AST/ALT) determined at the end of treatment. […] In general, a bioconjugate with a higher DPR which carries a larger amount of toxin would be expected to have a lower MTD.

[7] = freshly thawed cells, read-out: Average IC50 U937 freshly thawed cells (n = 2)
[8] = read-out: Average IC50 U937 cultured cells (n = 1), cells maintained in culture

Q: With `COc1cc2cc(c1-c1ccc(NC(=O)CCC(C)S)cc1)N(C)C(=O)C[C@H](OC(=O)C(C)C)[C@]1(C)O[C@H]1[C@H](C)[C@@H]1C[C@@](O)(NC(=O)O1)[C@H](OC)/C=C/C=C(\C)C2` (some centres unmarked) [ABZ-981] as the molecule, how does the IC50 ([1]; Homo sapiens, SK-OV-3, 96 h) read?
A: 5.53 nM

Q: And the IC50 ([2]; Homo sapiens, U-937, 96 h, read-out: Average IC50 U937 cultured cells (n = 1), cells maintained in culture)?
A: 3.06 nM

Q: What about the IC50 ([2]; Homo sapiens, U-937, 96 h, freshly thawed cells, read-out: Average IC50 U937 freshly thawed cells (n = 2)) of the same molecule?
A: 2.84 nM

Q: What about the IC50 ([3]; Homo sapiens) of the same molecule?
A: 6.1 nM

B1: AFP-ABZ981 conjugate: AFP bioconjugate releasing ABZ981, DPR 4.0, tested in the PK/BD study (conjugate, UniProt P02771 19-609, looked up)
Alpha-fetoprotein: RTLHRNEYGIASILDSYQCTAEISLADLATIFFAQFVQEATYKEVSKMVKDALTAIEKPTGDEQSSGCLENQLPAFLEELCHEKEILEKYGHSDCCSQSEEGRHNCFLAHKKPTPASIPLFQVPEPVTSCEAYEEDRETFMNKFIYEIARRHPFLYAPTILLWAARYDKIIPSCCKAENAVECFQTKAATVTKELRESSLLNQHACAVMKNFGTRTFQAITVTKLSQKFTKVNFTEIQKLVLDVAHVHEHCCRGDVLDCLQDGEKIMSYICSQQDTLSNKITECCKLTTLERGQCIIHAENDEKPEGLSPNLNRFLGDRDFNQFSSGEKNIFLASFVHEYSRRHPQLAVSVILRVAKGYQELLEKCFQTENPLECQDKGEEELQKYIQESQALAKRSCGLFQKLGEYYLQNAFLVAYTKKAPQLTSSELMAITRKMAATAATCCQLSEDKLLACGEGAADIIIGHLCIRHEMTPVNPGVGQCCTSSYANRRPCFSSLVVDETYVPPAFSDDKFIFHKDLCQAQGVALQTMKQEFLINLVKQKPQITEEQLEAVIADFSGLLEKCCQGQEQEVCFAEEGQKLISKTRAALGV
modifications: ABZ981-releasing toxin conjugate, DPR 4.0
Q: With B1 as the molecule, how does the “Peak free toxin levels normalized to AFP (toxin release in tumors)” value [4] read?
A: 18 % of the AFP levels in tumor

Q: What about the “toxin level in tumor (free maytansine plus metabolites), times higher than DM1 conjugate” value [4] of the same molecule?
A: approximately 3 times

Q: What about the “toxin level in tumor (free maytansine plus metabolites), times higher than DM4 conjugate” value [4] of the same molecule?
A: ~22 times

B2: AFP-ABZ982: AFP linked via di-methylated disulfide linker to ABZ-981, mixture of n 1-11 (conjugate)
chain: B1 Alpha-fetoprotein with N233Q
modifications: non-natural residues
Q: For B2, which “effect on the growth of the COLO-205 tumors” value [5] is on record?
A: dramatic, inhibitory effect

B3: AFP-ABZ1827 low DPR: AFP-ABZ1827 bioconjugate, average DPR 3.92 (conjugate, UniProt P02771 19-609, looked up)
Alpha-fetoprotein: B1 Alpha-fetoprotein
modifications: ABZ1827 toxin conjugate, DPR 3.92
Q: With B3 as the molecule, how does the IC50 [3] read?
A: 17.2 nM

Q: And the “Dose (MTD)” value [6]?
A: 10 mg/kg

B4: AFP-ABZ982 DPR 3.84: AFP-ABZ982 bioconjugate, average DPR 3.84 (conjugate, UniProt P02771 19-609, looked up)
Alpha-fetoprotein: B1 Alpha-fetoprotein
modifications: ABZ982 toxin conjugate, DPR 3.84
Q: Which IC50 [1] does the source give for B4 here?
A: 35.5 nM

Q: What about the IC50 [2, 7] of the same molecule?
A: 5.29 nM

Q: And the IC50 [2, 8]?
A: 4.49 nM

B5: AFP-ABZ1827 DPR 4.40: AFP-ABZ1827 bioconjugate, average DPR 4.40 (conjugate, UniProt P02771 19-609, looked up)
Alpha-fetoprotein: B1 Alpha-fetoprotein
modifications: ABZ1827 toxin conjugate, DPR 4.40
Q: For B5, which IC50 [1] is on record?
A: 58.8 nM

Q: And the IC50 [2, 7]?
A: 5.98 nM

Q: And the IC50 [2, 8]?
A: 7.47 nM

B6: AFP-ABZ982 DPR 2.50: AFP-ABZ982 bioconjugate, average DPR 2.50 (conjugate, UniProt P02771 19-609, looked up)
Alpha-fetoprotein: B1 Alpha-fetoprotein
modifications: ABZ982 toxin conjugate, DPR 2.50
Q: With B6 as the molecule, how does the IC50 [1] read?
A: 56.1 nM

Q: What about the IC50 [2, 7] of the same molecule?
A: 5.25 nM

Q: And the IC50 [2, 8]?
A: 5.22 nM

B7: AFP-ABZ982 DPR 5.51: AFP-ABZ982 bioconjugate, average DPR 5.51 (conjugate, UniProt P02771 19-609, looked up)
Alpha-fetoprotein: B1 Alpha-fetoprotein
modifications: ABZ982 toxin conjugate, DPR 5.51
Q: For B7, which IC50 [1] is on record?
A: 17.5 nM

Q: What about the IC50 [2, 7] of the same molecule?
A: 1.71 nM

Q: What about the IC50 [2, 8] of the same molecule?
A: 2.01 nM

B8: AFP-ABZ1827 DPR 5.88: AFP-ABZ1827 bioconjugate, average DPR 5.88 (conjugate, UniProt P02771 19-609, looked up)
Alpha-fetoprotein: B1 Alpha-fetoprotein
modifications: ABZ1827 toxin conjugate, DPR 5.88
Q: Which IC50 [1] does the source give for B8 here?
A: 35.6 nM

Q: And the IC50 [2, 7]?
A: 2.93 nM

Q: What about the IC50 [2, 8] of the same molecule?
A: 2.04 nM

B9: AFP-ABZ982 DPR 6.28: AFP-ABZ982 bioconjugate, average DPR 6.28 (conjugate, UniProt P02771 19-609, looked up)
Alpha-fetoprotein: B1 Alpha-fetoprotein
modifications: ABZ982 toxin conjugate, DPR 6.28
Q: With B9 as the molecule, how does the IC50 [1] read?
A: 37 nM

Q: And the IC50 [2, 8]?
A: 6.55 nM

B10: AFP-ABZ1827: AFP linked via mono-methylated disulfide linker to ABZ-981, mixture of n 1-11 (conjugate)
chain: B1 Alpha-fetoprotein with N233Q
modifications: non-natural residues
Q: With B10 as the molecule, how does the “effect on the growth of the COLO-205 tumors” value [5] read?
A: dramatic, inhibitory effect

B11: AFP-ABZ982 high DPR: AFP-ABZ982 bioconjugate, average DPR 5.81 (conjugate, UniProt P02771 19-609, looked up)
Alpha-fetoprotein: B1 Alpha-fetoprotein
modifications: ABZ982 toxin conjugate, DPR 5.81
Q: For B11, which IC50 [3] is on record?
A: 4.1 nM

Q: What about the “Dose (MTD)” value [6] of the same molecule?
A: 10 mg/kg

B12: AFP-ABZ982 low DPR: AFP-ABZ982 bioconjugate, average DPR 3.74 (conjugate, UniProt P02771 19-609, looked up)
Alpha-fetoprotein: B1 Alpha-fetoprotein
modifications: ABZ982 toxin conjugate, DPR 3.74
Q: What does the source list for B12?
A: IC50 [3]: 12.9 nM; Dose (MTD) [6]: 20 mg/kg

B13: AFP-ABZ1827 DPR 3.35: AFP-ABZ1827 bioconjugate, average DPR 3.35 (conjugate, UniProt P02771 19-609, looked up)
Alpha-fetoprotein: B1 Alpha-fetoprotein
modifications: ABZ1827 toxin conjugate, DPR 3.35
Q: With B13 as the molecule, how does the IC50 [1] read?
A: 66.4 nM

Q: And the IC50 [2, 7]?
A: 7.07 nM

Q: And the IC50 [2, 8]?
A: 5.52 nM
